Reference: US9327008B2, “Cell-permeant peptide-based inhibitor of kinases” (Purdue Research Foundation, priority 2008, dated 2016)

Key:
Format in all cases: biochemical
CaMKI = biological target: T1, CaMKI (Homo sapiens, UniProt Q14012); test: Millipore radiometric kinase activity assay, CaMKI (h); settings: for CaMK1 Kinase Activity: peptide inhibitor 300 μM, SD of 2 samples
T1 construct: purchased Millipore (assay service)
Procedure: (§1) A commercial radiometric assay service (Millipore, Billerica, Mass.) was used to test the specificity and potency of peptides containing a coupled transduction domain and therapeutic domain, hereinafter “complete peptides”). In these assays, if the kinase is not inhibited by an inhibitor peptide, a positively charged substrate is phosphorylated with a radiolabeled phosphate group from an ATP.
(§2) In a final reaction volume of 25 μL, CaMKI (h) (5-10 mU) is incubated with 8 mM MOPS pH 7.0, 0.2 mM EDTA, 0.5 mM CaCl2, 16 μg/mL calmodulin, 250 μM […] [SEQ ID NO: 52], 10 mM MgAcetate and [γ-^33P-ATP] (specific activity approx. 500 cpm/pmol, concentration as required). The reaction is initiated by the addition of the MgATP mix. After incubation for 40 minutes at room temperature, the reaction is stopped by the addition of 5 μL of a 3% phosphoric acid solution. 10 μL of the reaction is then spotted onto a P30 filtermat and washed three times for 5 minutes in 75 mM phosphoric acid and once in methanol prior to drying and scintillation counting.
(§3) IC50 values for inhibitor peptides were determined using Millipore's IC50Profiler Express service. The IC50 value was estimated from a 10-point curve of one-half log dilutions. For peptides tested for specificity, the concentration of the peptides that inhibited approximately 95% of MK2 activity was chosen to profile against a battery of kinases related to MK2, cell viability, or human disease from MilliporeKinaseProfiler service. In both assays, compounds were supplied in dimethylsulfoxide (DMSO). Every kinase activity measurement was conducted in duplicate.
(§4) Therapeutic inhibitor peptides were assayed for activity against human kinases related to MK2, cell viability, or human disease. The assays were performed using concentrations of therapeutic inhibitor peptides that yielded 2% to 8% of normal MK2 activity. Error is reported as the standard deviation between 2 samples, and “c” is rat AMPK whereas all other kinases used are human kinases.
(§5) Additional therapeutic inhibitor peptide variants were assayed for activity against several human kinases representative of several families of kinases. These kinases included: MK2; MK3; CaMKI (calcium/calmodulin-dependent protein kinase); PRAK (p38 regulated/activated protein kinase, also known as mitogen-activated protein kinase activated protein kinase 5 (MAPKAPK5)); SAPK2a (p38α); IRAK4 (IL-1 receptor (IL-1R)-associated kinase); MLCK (myosin light chain kinase); PKBβ (protein kinase B); PCKδ (protein kinase C); and ROCK-I (Rho-associated serine/threonine kinase).

MLCK = biological target: T2, MLCK (Homo sapiens, UniProt Q9H1R3); test: Millipore radiometric kinase activity assay, MLCK (h); settings: for MLCK Kinase Activity: peptide inhibitor 300 μM, SD of 2 samples
T2 construct: purchased Millipore (radiometric assay service)
Procedure: as §1
as §2, with “MLCK” for “CaMKI”
as §3, §4, §5

IRAK4 = biological target: T3, IRAK4 (Homo sapiens, UniProt Q9NWZ3); test: Millipore radiometric kinase activity assay, IRAK4 (h)
T3 construct: purchased Millipore (assay service)
T3 sequence (Q9NWZ3 1-460): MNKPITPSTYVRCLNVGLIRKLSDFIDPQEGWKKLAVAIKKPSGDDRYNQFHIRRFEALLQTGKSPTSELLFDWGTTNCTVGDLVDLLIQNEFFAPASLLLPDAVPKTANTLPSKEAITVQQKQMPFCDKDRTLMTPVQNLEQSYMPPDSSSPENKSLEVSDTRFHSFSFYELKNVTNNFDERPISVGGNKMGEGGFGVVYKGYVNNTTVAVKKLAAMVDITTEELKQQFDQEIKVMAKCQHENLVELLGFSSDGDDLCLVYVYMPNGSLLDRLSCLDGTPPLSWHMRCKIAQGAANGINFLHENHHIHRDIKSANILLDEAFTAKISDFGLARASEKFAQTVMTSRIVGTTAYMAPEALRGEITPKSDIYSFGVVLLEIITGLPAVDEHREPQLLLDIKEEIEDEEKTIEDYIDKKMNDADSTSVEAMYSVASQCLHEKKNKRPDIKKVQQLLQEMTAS
Procedure: as §1
In a final reaction volume of 25 μL, IRAK4 (h) (5-10 mU) is incubated with 8 mM MOPS pH 7.0, 0.2 mM EDTA, 0.33 mg/mL myelin basic protein, 10 mM MgAcetate and [γ-^33P-ATP] (specific activity approx. 500 cpm/pmol, concentration as required). The reaction is initiated by the addition of the MgATP mix. After incubation for 40 minutes at room temperature, the reaction is stopped by the addition of 5 μL of a 3% phosphoric acid solution. 10 μl of the reaction is then spotted onto a P30 filtermat and washed three times for 5 minutes in 75 mM phosphoric acid and once in methanol prior to drying and scintillation counting.
as §3, §4, §5

PKBβ = biological target: T4, PKBβ (Homo sapiens, UniProt P31751); test: Millipore radiometric kinase activity assay, PKBβ (h); settings: for PKBβ Kinase Activity: peptide inhibitor 300 μM, SD of 2 samples
T4 construct: purchased Millipore (radiometric assay service)
T4 sequence (P31751 whole entry): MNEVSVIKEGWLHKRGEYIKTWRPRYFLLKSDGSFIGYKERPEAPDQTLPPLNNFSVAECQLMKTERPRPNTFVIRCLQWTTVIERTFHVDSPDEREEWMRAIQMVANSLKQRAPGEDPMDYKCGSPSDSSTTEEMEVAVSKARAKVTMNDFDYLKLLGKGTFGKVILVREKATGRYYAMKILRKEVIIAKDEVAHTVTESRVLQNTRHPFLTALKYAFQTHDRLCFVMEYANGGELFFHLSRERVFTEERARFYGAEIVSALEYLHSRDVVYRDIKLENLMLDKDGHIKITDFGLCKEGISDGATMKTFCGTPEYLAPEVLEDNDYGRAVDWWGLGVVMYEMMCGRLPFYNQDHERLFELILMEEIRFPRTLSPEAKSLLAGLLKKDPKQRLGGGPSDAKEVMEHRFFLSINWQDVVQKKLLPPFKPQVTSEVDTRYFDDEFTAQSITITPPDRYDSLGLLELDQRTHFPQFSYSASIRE
Procedure: as §1
(§6) In a final reaction volume of 25 μL, PKAβ (h) (5-10 mU) is incubated with 8 mM MOPS pH 7.0, 0.2 mM EDTA, 30 μM […] [SEQ ID NO: 60], 10 mM MgAcetate and ['y-^33P-ATP] (specific activity approx. 500 cpm/pmol, concentration as required). The reaction is initiated by the addition of the MgATP mix. After incubation for 40 minutes at room temperature, the reaction is stopped by the addition of 5 μL it of a 3% phosphoric acid solution. 10 μL of the reaction is then spotted onto a P30 filtermat and washed three times for 5 minutes in 75 mM phosphoric acid and once in methanol prior to drying and scintillation counting.
as §3, §4, §5

ROCK-I = biological target: T5, ROCK-I (Homo sapiens, UniProt Q13464); test: Millipore radiometric kinase activity assay, ROCK-I (h); settings: for ROCK-1 Kinase Activity: peptide inhibitor 300 μM, SD of 2 samples
T5 construct: purchased Millipore (radiometric assay service)
T5 sequence (Q13464 whole entry): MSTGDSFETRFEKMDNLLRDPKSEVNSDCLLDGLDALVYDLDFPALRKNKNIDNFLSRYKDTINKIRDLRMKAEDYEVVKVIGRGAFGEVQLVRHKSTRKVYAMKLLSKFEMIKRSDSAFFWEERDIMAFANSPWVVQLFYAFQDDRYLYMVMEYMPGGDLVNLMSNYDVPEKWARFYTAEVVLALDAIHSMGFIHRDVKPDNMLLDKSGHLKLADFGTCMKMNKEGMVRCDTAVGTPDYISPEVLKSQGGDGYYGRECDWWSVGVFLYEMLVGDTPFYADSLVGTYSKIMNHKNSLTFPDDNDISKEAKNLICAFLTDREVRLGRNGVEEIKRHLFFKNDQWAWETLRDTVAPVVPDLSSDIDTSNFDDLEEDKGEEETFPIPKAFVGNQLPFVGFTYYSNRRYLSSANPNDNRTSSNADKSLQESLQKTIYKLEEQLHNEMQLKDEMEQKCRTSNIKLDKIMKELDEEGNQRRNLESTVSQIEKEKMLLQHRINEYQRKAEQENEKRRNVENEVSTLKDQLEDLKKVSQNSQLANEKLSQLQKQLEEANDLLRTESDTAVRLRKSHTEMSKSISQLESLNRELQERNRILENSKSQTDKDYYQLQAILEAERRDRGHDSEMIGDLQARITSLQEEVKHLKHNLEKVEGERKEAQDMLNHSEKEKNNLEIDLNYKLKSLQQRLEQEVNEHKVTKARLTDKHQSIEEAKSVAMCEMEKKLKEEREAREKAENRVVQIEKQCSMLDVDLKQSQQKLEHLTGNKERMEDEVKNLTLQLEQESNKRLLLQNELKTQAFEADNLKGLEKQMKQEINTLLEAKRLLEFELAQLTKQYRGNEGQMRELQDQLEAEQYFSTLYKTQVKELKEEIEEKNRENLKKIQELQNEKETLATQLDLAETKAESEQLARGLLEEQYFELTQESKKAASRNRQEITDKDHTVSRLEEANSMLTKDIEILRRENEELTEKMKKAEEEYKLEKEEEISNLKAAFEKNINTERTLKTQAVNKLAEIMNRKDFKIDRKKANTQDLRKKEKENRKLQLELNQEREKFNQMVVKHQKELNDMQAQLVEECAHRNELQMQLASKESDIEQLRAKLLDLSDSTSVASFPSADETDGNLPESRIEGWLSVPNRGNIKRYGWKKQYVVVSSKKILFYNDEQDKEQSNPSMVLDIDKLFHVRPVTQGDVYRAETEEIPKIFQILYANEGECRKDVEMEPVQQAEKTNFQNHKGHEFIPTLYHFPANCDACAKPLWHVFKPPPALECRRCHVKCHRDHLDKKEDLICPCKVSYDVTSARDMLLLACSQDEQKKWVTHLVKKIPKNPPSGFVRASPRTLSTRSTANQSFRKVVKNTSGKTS
Procedure: as §1
as §6, with “ROCK-I (b)” for “PKAβ (h)”, “63],” for “60],”, “[γ-^33P-ATP]” for “['y-^33P-ATP]”, “μL” for “μL it”
as §3, §4, §5

[1] = peptide 100 μM, listed as KAFAKLAARLYRLARQLGVAA
[2] = peptide 30 μM, listed as WLRRIKAWLRRI-

| Sequence | CaMKI Kinase Activity (%) (+SD %) (CaMKI; peptide 100 μM) | MLCK Kinase Activity (%) (+SD %) (MLCK; peptide 100 μM) | IRAK4 Kinase Activity (%) (+SD %) (IRAK4; peptide 100 μM) | PKBβ Kinase Activity (%) (+SD %) (PKBβ; peptide 100 μM) | ROCK-1 Kinase Activity (%) (+SD %) (ROCK-I; peptide 100 μM) | CaMK1 Kinase Activity (CaMKI) | MLCK Kinase Activity (MLCK) | PKBβ Kinase Activity (PKBβ) | ROCK-1 Kinase Activity (ROCK-I) | also measured |
| --- | --- | --- | --- | --- | --- | --- | --- | --- | --- | --- |
| FAKLAARLYRKALARQLGVAA | 0(2) % | 1(1) % | 13(4) % | 16(5) % | 25(2) % | – | – | – | – | – |
| KAFAKLAARLYRKALARQLGVAA | 0 (2) % | 2 (0) % | 16 (2) % | 28 (4) % | 29 (0) % | – | – | – | – | CaMKI Kinase Activity (%) (+SD %) (CaMKI; [1]): 0(2) %; MLCK Kinase Activity (%) (+SD %) (MLCK; [1]): 2(0) %; IRAK4 Kinase Activity (%) (+SD %) (IRAK4; [1]): 16(2) %; PKBβ Kinase Activity (%) (+SD %) (PKBβ; [1]): 28(4) %; ROCK-1 Kinase Activity (%) (+SD %) (ROCK-I; [1]): 29(0) % |
| WLRRIKAWLRRIKALNRQLGVAA | 0 (2) % | 1 (1) % | 13 (4) % | 16 (5) % | 25 (2) % | – | – | – | – | CaMKI Kinase Activity (%) (+SD %) (CaMKI; peptide 30 μM): 9(1) %; CaMKI Kinase Activity (%) (+SD %) (CaMKI; [2]): 9 (1) %; MLCK Kinase Activity (%) (+SD %) (MLCK; peptide 30 μM): 4(1) %; MLCK Kinase Activity (%) (+SD %) (MLCK; [2]): 4 (1) %; IRAK4 Kinase Activity (%) (+SD %) (IRAK4; peptide 30 μM): 12(1) %; IRAK4 Kinase Activity (%) (+SD %) (IRAK4; [2]): 12 (1) %; PKBβ Kinase Activity (%) (+SD %) (PKBβ; peptide 30 μM): 18(2) %; PKBβ Kinase Activity (%) (+SD %) (PKBβ; [2]): 18 (2) %; ROCK-1 Kinase Activity (%) (+SD %) (ROCK-I; peptide 30 μM): 0(1) %; ROCK-1 Kinase Activity (%) (+SD %) (ROCK-I; [2]): 0 (1) % |
| YARAAARQARAKALARQLGVAA | – | – | – | – | – | 2(0) % | 9(0) % | 17(2) % | 27(4) % | – |
| YARAAARQARAKALNRQLGVAA | – | – | – | – | – | 8(1) % | 66(9) % | 96(1) % | 95(7) % | IRAK4 Kinase Activity (IRAK4; peptide inhibitor 300 μM, SD of 2 samples): 68(3) % |
